From paper PMC4837482, “The complex binding mode of the peptide hormone H2 relaxin to its receptor RXFP1” (Nature Communications, 2016)
Where a chain is given by its changes, count along the chain named.

What was measured:
Experiment in all cases: cAMP activity assay (pCRE β-galactosidase reporter), transfected HEK293T cells
Format in all cases: cell-based
RXFP1 K52A = biological target: T1, RXFP1 K52A (Homo sapiens, UniProt Q9HBX9, K74A); conditions: construct K52A, ±s.e.m.
T1 construct: cells expressing full-length RXFP1 and mutants; expressed in transfected cells; host or cells: HEK293T
T1 sequence (Q9HBX9 23-757 K74A limits assumed): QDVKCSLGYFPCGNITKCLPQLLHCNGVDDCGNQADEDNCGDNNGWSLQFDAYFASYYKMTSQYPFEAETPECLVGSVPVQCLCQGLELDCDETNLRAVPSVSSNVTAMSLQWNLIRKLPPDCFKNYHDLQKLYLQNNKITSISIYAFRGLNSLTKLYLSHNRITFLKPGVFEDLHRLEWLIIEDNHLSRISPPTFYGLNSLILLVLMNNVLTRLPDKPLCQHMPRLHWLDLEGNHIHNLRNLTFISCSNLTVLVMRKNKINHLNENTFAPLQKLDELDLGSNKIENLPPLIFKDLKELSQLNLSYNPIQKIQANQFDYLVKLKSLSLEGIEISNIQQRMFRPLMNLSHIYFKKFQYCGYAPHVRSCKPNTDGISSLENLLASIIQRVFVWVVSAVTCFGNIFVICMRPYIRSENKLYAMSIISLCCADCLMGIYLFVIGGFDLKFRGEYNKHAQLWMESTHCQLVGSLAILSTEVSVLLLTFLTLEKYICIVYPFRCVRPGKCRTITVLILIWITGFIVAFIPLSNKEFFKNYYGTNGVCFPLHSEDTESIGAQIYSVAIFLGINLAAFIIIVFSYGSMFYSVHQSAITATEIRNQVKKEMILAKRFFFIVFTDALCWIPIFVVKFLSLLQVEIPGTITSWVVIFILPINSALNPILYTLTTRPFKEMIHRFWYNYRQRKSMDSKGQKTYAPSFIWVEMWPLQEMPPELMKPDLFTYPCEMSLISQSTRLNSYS
Summary of the method: (§1)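 H2 relaxin dilutions in minimal media with 1% DMSO; 5 μM Forskolin as positive control, media/1% DMSO as negative. After freezing at −80 °C, cells lysed in pH 8.0 phosphate buffers and chlorophenol red-β-D-galactopyranoside added; absorbance read at 570 nm. Responses given as % of 5 μM Forskolin maximum.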

RXFP1 N44A = biological target: T2, RXFP1 N44A (Homo sapiens, UniProt Q9HBX9, N66A); conditions: construct N44A, ±s.e.m.
T2 construct: transiently transfected human embryonic kidney (HEK) 293T cells expressing full-length RXFP1 and mutants; expressed in transfected cells; host or cells: HEK293T
T2 sequence (Q9HBX9 23-757 N66A limits assumed): T1 sequence (Q9HBX9 23-757 K74A limits assumed) with N44A, A52K
Summary of the method: as §1

RXFP1 W46A = biological target: T3, RXFP1 W46A (Homo sapiens, UniProt Q9HBX9, W68A); conditions: construct W46A, ±s.e.m.
T3 construct: transiently transfected human embryonic kidney (HEK) 293T cells expressing full-length RXFP1 and mutants; expressed in transfected cells; host or cells: HEK293T
T3 sequence (Q9HBX9 23-757 W68A limits assumed): T1 sequence (Q9HBX9 23-757 K74A limits assumed) with W46A, A52K
Summary of the method: as §1

[1] = percentage of maximum response to 5 μM Forskolin

Substance: H2 relaxin: two-chain 6-kDa peptide hormone structurally related to insulin; recombinant human gene-2 H2 relaxin provided by Corthera
- H2 relaxin pEC50 (RXFP1 K52A; cAMP reporter): 11.06±0.11
- H2 relaxin Emax (RXFP1 K52A; [1]): 154.63±33.73 (5) %
- H2 relaxin pEC50 (RXFP1 N44A; cAMP reporter): 11.0±0.1 (4)
- H2 relaxin Emax (RXFP1 N44A; [1]): 92.16±6.98 (4) %
- H2 relaxin pEC50 (RXFP1 W46A; cAMP reporter): 7.02±0.18 (3)
- H2 relaxin Emax (RXFP1 W46A; [1]): 109.6±13.69 (3) %
